The supplement of paper PMC12458215
± gives the uncertainty stated by the source.

Test system: HEK293T
Assay: plasma membrane surface immunostaining intensity (anti-HA, deep receptor scanning) (arbitrary fluorescence units); higher = higher plasma membrane expression

Sequence | plasma membrane surface immunostaining intensity (GPCR class: A) | plasma membrane surface immunostaining intensity (GPCR class: A (Olfactory))
MNYPLTLEMDLENLEDLFWELDRLDNYNDTSLVENHLCPATEGPLMASFKAVFVPVAYSLIFLLGVIGNVLVLVILERHRQTRSSTETFLFHLAVADLLLVFILPFAVAEGSVGWVLGTFLCKTVIALHKVNFYCSSLLLACIAVDRYLAIVHAVHAYRHRRLLSIHITCGTIWLVGFLLALPEILFAKVSQGHHNNSLPRCTFSQENQAETHAWFTSRFLYHVAGFLLPMLVMGWCYVGVVHRLRQAQRRPQRQKAVRVAILVTSIFFLCWSPYHIVIFLDTLARLKAVDNTCKLNGSLPVAITMCEFLGLAHCCLNPMLYTFAGVKFRSDLSRLLTKLGCTGPASLCQLFPSWRRSSLSESENATSLTTF [CXCR5] | 630 ± 74 | 
MPANFTEGSFDSSGTGQTLDSSPVACTETVTFTEVVEGKEWGSFYYSFKTEQLITLWVLFVFTIVGNSVVLFSTWRRKKKSRMTFFVTQLAITDSFTGLVNILTDINWRFTGDFTAPDLVCRVVRYLQVVLLYASTYVLVSLSIDRYHAIVYPMKFLQGEKQARVLIVIAWSLSFLFSIPTLIIFGKRTLSNGEVQCWALWPDDSYWTPYMTIVAFLVYFIPLTIISIMYGIVIRTIWIKSKTYETVISNCSDGKLCSSYNRGLISKAKIKAIKYSIIIILAFICCWSPYFLFDILDNFNLLPDTQERFYASVIIQNLPALNSAINPLIYCVFSSSISFPCREQRSQDSRMTFRERTERHEMQILSKPEFI [NPSR1] | 457 ± 42 | 
MPIMGSSVYITVELAIAVLAILGNVLVCWAVWLNSNLQNVTNYFVVSLAAADIAVGVLAIPFAITISTGFCAACHGCLFIACFVLVLTQSSIFSLLAIAIDRYIAIRIPLRYNGLVTGTRAKGIIAICWVLSFAIGLTPMLGWNNCGQPKEGKNHSQGCGEGQVACLFEDVVPMNYMVYFNFFACVLVPLLLMLGVYLRIFLAARRQLKQMESQPLPGERARSTLQKEVHAAKSLAIIVGLFALCWLPLHIINCFTFFCPDCSHAPLWLMYLAIVLSHTNSVVNPFIYAYRIREFRQTFRKIIRSHVLRQQEPFKAAGTSARVLAAHGSDGEQVSLRLNGHPPGVWANGSAPHPERRPNGYALGLVSGGSAQESQGNTGLPDVELLSHELKGVCPEPPGLDDPLAQDGAGVS [ADORA2A] | 5780 ± 120 | 
MPKLNSTFVTEFLFEGFSSFRRQHKLVFFVVFLTLYLLTLSGNVIIMTIIRLDHHLHTPMYFFLCMLSISETCYTVAIIPHMLSGLLNPHQPIATQSCATQLFFYLTFGINNCFLLTVMGYDRYVAICNPLRYSVIMGKRACIQLASGSLGIGLGMAIVQVTSVFGLPFCDAFVISHFFCDVRHLLKLACTDTTVNEIINFVVSVCVLVLPMGLVFISYVLIISTILKIASAEGQKKAFATCASHLTVVIIHYGCASIIYLKPKSQSSLGQDRLISVTYTHHSPTEPCCVQPEEQGGQRCSAQSRGAKNSVSLMKRGCEGFSFAFINMY [OR10J3] |  | 164 ± 60
MPNFTDVTEFTLLGLTCRQELQVLFFVVFLAVYMITLLGNIGMIILISISPQLQSPMYFFLSHLSFADVCFSSNVTPKMLENLLSETKTISYVGCLVQCYFFIAVVHVEVYILAVMAFDRYMAGCNPLLYGSKMSRTVCVRLISVPYVYGFSVSLICTLWTYGLYFCGNFEINHFYCADPPLIQIACGRVHIKEITMIVIAGINFTYSLSVVLISYTLIVVAVLRMRSADGRRKAFSTCGSHLTAVSMFYGTPIFMYLRRPTEESVEQGKMVAVFYTTVIPMLNPMIYSLRNKDVKEAVNKAITKTYVRQ [OR5M9] |  | 133 ± 54
MPNNSTALSLANVTYITMEIFIGLCAIVGNVLVICVVKLNPSLQTTTFYFIVSLALADIAVGVLVMPLAIVVSLGITIHFYSCLFMTCLLLIFTHASIMSLLAIAVDRYLRVKLTVRYKRVTTHRRIWLALGLCWLVSFLVGLTPMFGWNMKLTSEYHRNVTFLSCQFVSVMRMDYMVYFSFLTWIFIPLVVMCAIYLDIFYIIRNKLSLNLSNSKETGAFYGREFKTAKSLFLVLFLFALSWLPLSIINCIIYFNGEVPQLVLYMGILLSHANSMMNPIVYAYKIKKFKETYLLILKACVVCHPSDSLDTSIEKNSE [ADORA3] | 5830 ± 110 | 
MPNSTTVMEFLLMRFSDVWTLQILHSASFFMLYLVTLMGNILIVTVTTCDSSLHMPMYFFLRNLSILDACYISVTVPTSCVNSLLDSTTISKAGCVAQVFLVVFFVYVELLFLTIMAHDRYVAVCQPLHYPVIVNSRICIQMTLASLLSGLVYAGMHTGSTFQLPFCRSNVIHQFFCDIPSLLKLSCSDTFSNEVMIVVSALGVGGGCFIFIIRSYIHIFSTVLGFPRGADRTKAFSTCIPHILVVSVFLSSCSSVYLRPPAIPAATQDLILSGFYSIMPPLFNPIIYSLRNKQIKVAIKKIMKRIFYSENV [OR14C36] |  | 264 ± 80
MPPSISAFQAAYIGIEVLIALVSVPGNVLVIWAVKVNQALRDATFCFIVSLAVADVAVGALVIPLAILINIGPQTYFHTCLMVACPVLILTQSSILALLAIAVDRYLRVKIPLRYKMVVTPRRAAVAIAGCWILSFVVGLTPMFGWNNLSAVERAWAANGSMGEPVIKCEFEKVISMEYMVYFNFFVWVLPPLLLMVLIYLEVFYLIRKQLNKKVSASSGDPQKYYGKELKIAKSLALILFLFALSWLPLHILNCITLFCPSCHKPSILTYIAIFLTHGNSAMNPIVYAFRIQKFRVTFLKIWNDHFRCQPAPPIDEDLPEERPDD [ADORA1] | 6412 ± 62 | 
MPSKSLSNLSVTTGANESGSVPEGWERDFLPASDGTTTELVIRCVIPSLYLLIITVGLLGNIMLVKIFITNSAMRSVPNIFISNLAAGDLLLLLTCVPVDASRYFFDEWMFGKVGCKLIPVIQLTSVGVSVFTLTALSADRYRAIVNPMDMQTSGALLRTCVKAMGIWVVSVLLAVPEAVFSEVARISSLDNSSFTACIPYPQTDELHPKIHSVLIFLVYFLIPLAIISIYYYHIAKTLIKSAHNLPGEYNEHTKKQMETRKRLAKIVLVFVGCFIFCWFPNHILYMYRSFNYNEIDPSLGHMIVTLVARVLSFGNSCVNPFALYLLSESFRRHFNSQLCCGRKSYQERGTSYLLSSSAVRMTSLKSNAKNMVTNSVLLNGHSMKQEMAL [NMBR] | 2430 ± 1200 | 
MPSPPGLRALWLCAALCASRRAGGAPQPGPGPTACPAPCHCQEDGIMLSADCSELGLSAVPGDLDPLTAYLDLSMNNLTELQPGLFHHLRFLEELRLSGNHLSHIPGQAFSGLYSLKILMLQNNQLGGIPAEALWELPSLQSLRLDANLISLVPERSFEGLSSLRHLWLDDNALTEIPVRALNNLPALQAMTLALNRISHIPDYAFQNLTSLVVLHLHNNRIQHLGTHSFEGLHNLETLDLNYNKLQEFPVAIRTLGRLQELGFHNNNIKAIPEKAFMGNPLLQTIHFYDNPIQFVGRSAFQYLPKLHTLSLNGAMDIQEFPDLKGTTSLEILTLTRAGIRLLPSGMCQQLPRLRVLELSHNQIEELPSLHRCQKLEEIGLQHNRIWEIGADTFSQLSSLQALDLSWNAIRSIHPEAFSTLHSLVKLDLTDNQLTTLPLAGLGGLMHLKLKGNLALSQAFSKDSFPKLRILEVPYAYQCCPYGMCASFFKASGQWEAEDLHLDDEESSKRPLGLLARQAENHYDQDLDELQLEMEDSKPHPSVQCSPTPGPFKPCEYLFESWGIRLAVWAIVLLSVLCNGLVLLTVFAGGPVPLPPVKFVVGAIAGANTLTGISCGLLASVDALTFGQFSEYGARWETGLGCRATGFLAVLGSEASVLLLTLAAVQCSVSVSCVRAYGKSPSLGSVRAGVLGCLALAGLAAALPLASVGEYGASPLCLPYAPPEGQPAALGFTVALVMMNSFCFLVVAGAYIKLYCDLPRGDFEAVWDCAMVRHVAWLIFADGLLYCPVAFLSFASMLGLFPVTPEAVKSVLLVVLPLPACLNPLLYLLFNPHFRDDLRRLRPRAGDSGPLAYAAAGELEKSSCDSTQALVAFSDVDLILEASEAGRPPGLETYGFPSVTLISCQQPGAPRLEGSHCVEPEGNHFGNPQPSMDGELLLRAEGSTPAGGGLSGGGGFQPSGLAFASHV [LGR6] | 479 ± 50 | 
MPVGKLVFNQSEPTEFVFRAFTTATEFQVLLFLLFLLLYLMILCGNTAIIWVVCTHSTLRTPMYFFLSNLSFLELCYTTVVVPLMLSNILGAQKPISLAGCGAQMFFFVTLGSTDCFLLAIMAYDRYVAICHPLHYTLIMTRELCTQMLGGALGLALFPSLQLTALIFTLPFCGHHQEINHFLCDVPPVLRLACADIRVHQAVLYVVSILVLTIPFLLICVSYVFITCAILSIRSAEGRRRAFSTCSFHLTVVLLQYGCCSLVYLRPRSSTSEDEDSQIALVYTFVTPLLNPLLYSLRNKDVKGALRSAIIRKAASDAN [OR10Q1] |  | 243 ± 67
